This data set has as its target T1, cardiotoxin 3 (CTX3) (Naja naja atra (Taiwan cobra), UniProt P60301 22-81).
T1 sequence: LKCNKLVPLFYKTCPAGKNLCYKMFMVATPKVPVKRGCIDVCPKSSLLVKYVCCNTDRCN
The data set can be described thus: fluorescence quenching titration; 20 nM aptamer; >80% quenching, saturated at 400 nM CTX3; 10 mM HEPES pH 8.0, 30 C, 5 min incubation, no added salt stated; 20 nM aptamer or 10 nM MB. Conditions: protein: native; label: 5'-FAM; 3'-DABCYL.

Consider 1 molecule from publication PMC6017339, “A Turn-on Fluorescence Sensor for Heparin Detection Based on a Release of Taiwan Cobra Cardiotoxin from a DNA Aptamer or Adenosine-Based Molecular Beacon”.

As for GCGAGGTGTTCGAGAGTTAGGGGCGACATGACCAAACGTT (ssDNA) [DNA aptamer against CTX3], the binding result is on record as “binds”.
